Patent publication US20190055527A1 (KYUSHU UNIVERSITY NATIONAL UNIVERSITY, published 2019)

Experiments:
Assay in all cases: SPR (BIAcore J), PfuPCNA immobilised on CM5 chip, polymerase variant as analyte, 25° C.
Taq94 (Taq-L15-PIP) = target: T1, Taq94 (Taq-L15-PIP) (Thermus aquaticus, UniProt P19821 1-832)
T1 construct: Taq DNA polymerase, 15-residue Ser/Gly linker, PfuRFCL PIP box at the C-terminus; also called DNA polymerase variant Taq94
Protocol: (§1) In the surface plasmon resonance (SPR) analysis, BIAcore J (manufactured by BIACORE) was used. A PCNA from Pyrococcus furiosus (J. Bacteriology, 181, 6591-6599, 1999: hereinafter referred to as PfuPCNA) was immobilized on a CM5 sensor chip (manufactured by GE Healthcare) by amine coupling, and the measurement was carried out under the conditions of 25° C., a flow rate of 30 μL/minutes, and a solution E (10 mM Tris-HCl, 50 mM KCl, 1.5 mM MgCl₂, pH 8.3). A sample solution of Taq81 to Taq85 diluted to 10, 20, 40, 80, 160, or 320 nM or a sample solution of Taq94 diluted to 125 nM, 250 nM, 500 nM, 1 μM, or 2 μM was each added for 2 minutes. The sensorgrams obtained were analyzed by BIA evaluation program, and the dissociation constants (Kd) between Taq81 to Taq85 and PfuPCNA and between Taq94 and PfuPCNA were calculated.
(§2) The dissociation constants (Kd) with respect to the bindings between five kinds of Taq DNA polymerases to which PIP box was added at an N-terminal, each having a different length of a linker peptide (Taq81, Taq82, Taq83, Taq84, and Taq85), and PfuPCNA were calculated. As a result, the values were 7.1×10⁻⁷ M, 4.4×10⁻⁷ M, 2.4×10⁻⁷ M, 2.5×10⁻⁷ M, and 2.0×10⁻⁷ M, which were nearly of the same level regardless of the lengths of the linker peptides.

Taq84 (PIP-L35-Taq) = target: T2, Taq84 (PIP-L35-Taq) (Thermus aquaticus, UniProt P19821 1-832)
T2 construct: N-terminal PfuRFCL PIP box, 35-residue Ser/Gly linker, Taq DNA polymerase; also called DNA polymerase variant Taq84
T2 sequence (P19821 other isoform, or with tags, fused parts or gaps): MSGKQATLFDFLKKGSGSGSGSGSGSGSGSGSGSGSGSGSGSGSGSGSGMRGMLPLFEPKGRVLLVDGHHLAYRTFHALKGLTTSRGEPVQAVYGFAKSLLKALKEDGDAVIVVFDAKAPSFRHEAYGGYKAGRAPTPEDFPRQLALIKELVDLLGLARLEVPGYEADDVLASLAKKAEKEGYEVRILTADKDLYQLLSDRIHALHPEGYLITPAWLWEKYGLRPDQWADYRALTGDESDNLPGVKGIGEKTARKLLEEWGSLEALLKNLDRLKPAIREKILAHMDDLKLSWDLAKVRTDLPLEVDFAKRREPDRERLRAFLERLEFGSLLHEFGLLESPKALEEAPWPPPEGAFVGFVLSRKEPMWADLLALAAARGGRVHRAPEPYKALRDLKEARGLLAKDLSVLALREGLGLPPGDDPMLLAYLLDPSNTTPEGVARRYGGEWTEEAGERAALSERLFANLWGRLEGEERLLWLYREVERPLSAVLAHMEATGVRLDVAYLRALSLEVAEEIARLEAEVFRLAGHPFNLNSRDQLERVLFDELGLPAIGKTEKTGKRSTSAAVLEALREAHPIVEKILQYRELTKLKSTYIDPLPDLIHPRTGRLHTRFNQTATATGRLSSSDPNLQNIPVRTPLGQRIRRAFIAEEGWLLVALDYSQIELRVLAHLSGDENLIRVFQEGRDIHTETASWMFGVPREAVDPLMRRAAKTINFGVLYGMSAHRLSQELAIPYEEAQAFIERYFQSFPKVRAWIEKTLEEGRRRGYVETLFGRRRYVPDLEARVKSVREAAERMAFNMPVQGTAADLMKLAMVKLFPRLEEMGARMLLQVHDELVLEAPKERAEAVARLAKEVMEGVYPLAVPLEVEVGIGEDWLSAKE
Protocol: as §1, §2

Taq83 (PIP-L15-Taq) = target: T3, Taq83 (PIP-L15-Taq) (Thermus aquaticus, UniProt P19821 1-832)
T3 construct: N-terminal PfuRFCL PIP box, 15-residue Ser/Gly linker, Taq DNA polymerase; also called DNA polymerase variant Taq83
T3 sequence (P19821 other isoform, or with tags, fused parts or gaps): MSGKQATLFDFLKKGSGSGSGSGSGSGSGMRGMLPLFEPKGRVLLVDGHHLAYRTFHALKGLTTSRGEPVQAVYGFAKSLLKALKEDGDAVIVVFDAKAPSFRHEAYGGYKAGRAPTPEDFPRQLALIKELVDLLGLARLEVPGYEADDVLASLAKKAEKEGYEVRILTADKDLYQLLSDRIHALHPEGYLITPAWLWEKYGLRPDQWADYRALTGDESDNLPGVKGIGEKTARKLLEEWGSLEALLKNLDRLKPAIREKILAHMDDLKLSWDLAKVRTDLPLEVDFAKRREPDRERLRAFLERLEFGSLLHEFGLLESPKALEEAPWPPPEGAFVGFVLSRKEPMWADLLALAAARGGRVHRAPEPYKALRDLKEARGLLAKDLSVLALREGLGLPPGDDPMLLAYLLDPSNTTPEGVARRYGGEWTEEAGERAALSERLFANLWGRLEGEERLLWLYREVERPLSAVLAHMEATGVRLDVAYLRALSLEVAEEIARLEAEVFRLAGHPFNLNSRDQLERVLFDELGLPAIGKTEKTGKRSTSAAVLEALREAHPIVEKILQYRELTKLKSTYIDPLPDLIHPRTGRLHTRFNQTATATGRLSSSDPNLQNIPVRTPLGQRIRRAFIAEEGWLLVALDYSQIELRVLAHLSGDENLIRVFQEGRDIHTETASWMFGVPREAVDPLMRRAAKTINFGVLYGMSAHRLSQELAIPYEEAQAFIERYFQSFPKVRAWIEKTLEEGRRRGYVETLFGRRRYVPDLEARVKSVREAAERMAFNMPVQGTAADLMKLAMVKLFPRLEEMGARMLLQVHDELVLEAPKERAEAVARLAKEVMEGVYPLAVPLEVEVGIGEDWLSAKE
Protocol: as §1, §2

Taq81 (PIP-L5-Taq) = target: T4, Taq81 (PIP-L5-Taq) (Thermus aquaticus, UniProt P19821 1-832)
T4 construct: expressed in E. coli and purified; also called DNA polymerase variant Taq81
T4 sequence (P19821 other isoform, or with tags, fused parts or gaps): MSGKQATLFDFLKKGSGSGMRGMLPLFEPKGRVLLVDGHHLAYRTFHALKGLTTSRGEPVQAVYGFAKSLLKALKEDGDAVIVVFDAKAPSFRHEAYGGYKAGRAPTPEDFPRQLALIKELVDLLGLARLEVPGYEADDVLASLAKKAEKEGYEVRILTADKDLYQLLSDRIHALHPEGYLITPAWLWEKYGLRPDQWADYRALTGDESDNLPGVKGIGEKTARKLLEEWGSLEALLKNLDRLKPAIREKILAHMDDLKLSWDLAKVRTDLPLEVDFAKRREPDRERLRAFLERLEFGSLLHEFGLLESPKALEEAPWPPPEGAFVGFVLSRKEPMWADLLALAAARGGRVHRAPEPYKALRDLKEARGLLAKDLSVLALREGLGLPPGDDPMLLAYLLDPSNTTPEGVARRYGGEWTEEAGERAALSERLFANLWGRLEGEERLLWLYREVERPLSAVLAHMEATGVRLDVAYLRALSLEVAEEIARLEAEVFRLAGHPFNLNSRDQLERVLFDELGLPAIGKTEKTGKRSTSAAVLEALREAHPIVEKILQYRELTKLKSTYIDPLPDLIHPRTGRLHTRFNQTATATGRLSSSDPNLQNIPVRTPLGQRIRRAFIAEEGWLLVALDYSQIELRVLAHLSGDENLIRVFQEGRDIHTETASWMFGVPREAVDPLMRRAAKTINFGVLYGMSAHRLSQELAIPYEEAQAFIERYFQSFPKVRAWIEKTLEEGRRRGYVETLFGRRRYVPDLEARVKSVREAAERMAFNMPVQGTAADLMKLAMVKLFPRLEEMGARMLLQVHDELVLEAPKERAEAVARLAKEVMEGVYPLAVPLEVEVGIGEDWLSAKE
Protocol: as §1, §2

Taq85 (PIP-L47-Taq) = target: T5, Taq85 (PIP-L47-Taq) (Thermus aquaticus, UniProt P19821 1-832)
T5 construct: N-terminal PfuRFCL PIP box, 47-residue Ser/Gly linker, Taq DNA polymerase; also called DNA polymerase variant Taq85
Protocol: as §1, §2

Taq82 (PIP-L10-Taq) = target: T6, Taq82 (PIP-L10-Taq) (Thermus aquaticus, UniProt P19821 1-832)
T6 construct: N-terminal PfuRFCL PIP box, 10-residue Ser/Gly linker, Taq DNA polymerase; also called DNA polymerase variant Taq82
T6 sequence (P19821 other isoform, or with tags, fused parts or gaps): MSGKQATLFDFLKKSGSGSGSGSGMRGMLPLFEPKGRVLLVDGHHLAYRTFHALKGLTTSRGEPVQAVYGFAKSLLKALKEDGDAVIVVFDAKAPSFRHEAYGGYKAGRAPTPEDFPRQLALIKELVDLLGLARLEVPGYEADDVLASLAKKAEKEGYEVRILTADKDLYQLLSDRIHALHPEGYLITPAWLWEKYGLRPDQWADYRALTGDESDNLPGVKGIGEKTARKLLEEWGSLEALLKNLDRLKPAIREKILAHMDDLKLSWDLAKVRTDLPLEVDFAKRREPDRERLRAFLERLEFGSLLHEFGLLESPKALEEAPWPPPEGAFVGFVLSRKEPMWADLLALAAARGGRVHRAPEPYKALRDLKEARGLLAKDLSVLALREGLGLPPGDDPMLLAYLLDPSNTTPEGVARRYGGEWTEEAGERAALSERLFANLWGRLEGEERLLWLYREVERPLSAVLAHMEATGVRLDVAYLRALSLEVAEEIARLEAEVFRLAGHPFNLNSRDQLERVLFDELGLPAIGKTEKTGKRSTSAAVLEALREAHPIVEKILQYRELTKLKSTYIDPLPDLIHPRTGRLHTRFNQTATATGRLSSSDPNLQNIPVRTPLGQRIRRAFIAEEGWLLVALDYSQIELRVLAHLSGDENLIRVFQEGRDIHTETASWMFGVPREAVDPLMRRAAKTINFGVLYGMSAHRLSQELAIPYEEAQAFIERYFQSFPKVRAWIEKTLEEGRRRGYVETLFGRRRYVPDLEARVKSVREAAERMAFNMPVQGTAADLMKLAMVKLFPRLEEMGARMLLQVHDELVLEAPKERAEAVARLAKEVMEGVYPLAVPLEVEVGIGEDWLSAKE
Protocol: as §1, §2

T1 sequence (P19821 other isoform, or with tags, fused parts or gaps): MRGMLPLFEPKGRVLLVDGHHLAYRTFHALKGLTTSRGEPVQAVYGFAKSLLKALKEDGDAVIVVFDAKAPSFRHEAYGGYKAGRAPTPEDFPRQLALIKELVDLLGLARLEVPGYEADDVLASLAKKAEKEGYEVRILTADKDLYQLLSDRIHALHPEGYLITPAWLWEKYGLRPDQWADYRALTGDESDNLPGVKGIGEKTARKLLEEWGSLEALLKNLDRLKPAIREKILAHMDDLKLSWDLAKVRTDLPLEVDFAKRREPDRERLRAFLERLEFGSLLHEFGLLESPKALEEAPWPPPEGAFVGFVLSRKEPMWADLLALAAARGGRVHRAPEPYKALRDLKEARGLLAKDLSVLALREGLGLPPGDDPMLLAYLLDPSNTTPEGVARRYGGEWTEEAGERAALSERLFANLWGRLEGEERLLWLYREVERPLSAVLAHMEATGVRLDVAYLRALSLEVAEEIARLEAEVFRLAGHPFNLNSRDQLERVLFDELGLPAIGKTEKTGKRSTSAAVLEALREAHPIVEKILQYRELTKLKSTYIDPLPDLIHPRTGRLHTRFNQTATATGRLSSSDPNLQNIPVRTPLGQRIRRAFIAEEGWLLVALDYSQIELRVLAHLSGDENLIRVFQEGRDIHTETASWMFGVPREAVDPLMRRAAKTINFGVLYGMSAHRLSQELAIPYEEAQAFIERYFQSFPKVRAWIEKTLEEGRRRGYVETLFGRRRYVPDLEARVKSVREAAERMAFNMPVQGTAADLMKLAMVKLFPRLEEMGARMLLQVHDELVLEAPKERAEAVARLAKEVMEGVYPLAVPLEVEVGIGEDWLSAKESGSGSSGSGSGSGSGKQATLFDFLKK

Kd (Taq94 (Taq-L15-PIP)): 2500 nM
Kd (Taq84 (PIP-L35-Taq)): 250 nM
Kd (Taq83 (PIP-L15-Taq)): 240 nM
Kd (Taq81 (PIP-L5-Taq)): 710 nM
Kd (Taq85 (PIP-L47-Taq)): 200 nM
Kd (Taq82 (PIP-L10-Taq)): 440 nM
B1: PCNA from Pyrococcus furiosus (other, UniProt O73947 1-249, looked up)
chain: MPFEIVFEGAKEFAQLIDTASKLIDEAAFKVTEDGISMRAMDPSRVVLIDLNLPSSIFSKYEVVEPETIGVNMDHLKKILKRGKAKDTLILKKGEENFLEITIQGTATRTFRVPLIDVEEMEVDLPELPFTAKVVVLGEVLKDAVKDASLVSDSIKFIARENEFIMKAEGETQEVEIKLTLEDEGLLDIEVQEETKSAYGVSYLSDMVKGLGKADEVTIKFGNEMPMQMEYYIRDEGRLTFLLAPRVEE
notes: Wild-type PfuPCNA immobilised on a CM5 chip by amine coupling; also called PfuPCNA
